This is an account of results in article PMC9364786 (Journal of Virology, 2022).

For this test, the target named is SARS-CoV-2 subdomain 1 (SBD) protein, D614G (SARS-CoV-2, UniProt P0DTC2). Kind of test: ELISA. The following applies: both partners purified. In general terms: An ELISA detects its analyte on a solid surface through an enzyme-linked reagent.

B1: MAb 084-7D (antibody, V domains shown)
VH: EVQLLESGGGLVQPGGSLRLSCAASGFSFSSYAMNWVRQAPGKGLEWVSAISGGGDNIYYADSVKGRFTISRDNYKNTLHLQMKSLRAEDTAVYYCAKDHPSWGSSFLNWGQGILVIVSS
VL: DIQMTQSPSTLSASVGDRVTITCRASQSISSWLAWYQQKPGRAPKLLIYTASNLESGVPSRFSGSGSGTEFSLTISSLQPDDFATYYCQQYNSYSLTFGGGTRVEIK
notes: also called 084-7D MAb
As for B1, the binding result is listed as “no binding (tested: 5 μg/mL starting concentration)”.
